US10766960 (dated 2020)

T1: FcgRIIb (human, UniProt P31994)
T1 chain: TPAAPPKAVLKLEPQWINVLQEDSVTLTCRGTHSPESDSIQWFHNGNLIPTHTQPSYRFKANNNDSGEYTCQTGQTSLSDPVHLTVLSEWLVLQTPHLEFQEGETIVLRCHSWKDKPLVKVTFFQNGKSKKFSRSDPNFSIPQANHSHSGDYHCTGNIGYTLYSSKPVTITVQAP

T2: FcgRIIa R (human, UniProt P12318)
T2 chain: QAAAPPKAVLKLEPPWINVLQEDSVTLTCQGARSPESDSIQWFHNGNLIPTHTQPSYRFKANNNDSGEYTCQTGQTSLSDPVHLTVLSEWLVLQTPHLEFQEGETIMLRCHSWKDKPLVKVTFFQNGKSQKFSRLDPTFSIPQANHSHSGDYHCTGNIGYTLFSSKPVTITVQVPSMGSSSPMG

T3: FcgRIIa H (human, UniProt P12318)
T3 chain: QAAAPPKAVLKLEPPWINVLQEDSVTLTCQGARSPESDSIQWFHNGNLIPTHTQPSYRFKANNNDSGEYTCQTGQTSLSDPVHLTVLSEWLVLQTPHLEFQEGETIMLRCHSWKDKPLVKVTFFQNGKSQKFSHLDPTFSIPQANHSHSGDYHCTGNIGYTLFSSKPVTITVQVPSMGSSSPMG

T4: FcgRIa (human, UniProt P12314)
T4 chain: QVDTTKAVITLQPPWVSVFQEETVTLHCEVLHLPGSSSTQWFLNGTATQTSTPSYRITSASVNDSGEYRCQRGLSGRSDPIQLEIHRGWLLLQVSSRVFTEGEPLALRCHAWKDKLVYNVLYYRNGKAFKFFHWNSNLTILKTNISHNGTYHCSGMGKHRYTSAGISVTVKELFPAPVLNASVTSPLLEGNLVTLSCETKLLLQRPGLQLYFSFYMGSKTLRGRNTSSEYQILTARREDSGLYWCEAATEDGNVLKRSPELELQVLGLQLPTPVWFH


Experiments:
Experiment in all cases: SPR
FcgRIIb = biological target: T1, FcgRIIb
FcgRIIa R = biological target: T2, FcgRIIa R
FcgRIIIa V = FcgRIIIa V (human, UniProt P08637)
FcgRIIa H = biological target: T3, FcgRIIa H
FcgRIIIa F = FcgRIIIa F (human, UniProt P08637)
FcgRIa = biological target: T4, FcgRIa

Chain of FcgRIIIa V (P08637 17-208 F176V): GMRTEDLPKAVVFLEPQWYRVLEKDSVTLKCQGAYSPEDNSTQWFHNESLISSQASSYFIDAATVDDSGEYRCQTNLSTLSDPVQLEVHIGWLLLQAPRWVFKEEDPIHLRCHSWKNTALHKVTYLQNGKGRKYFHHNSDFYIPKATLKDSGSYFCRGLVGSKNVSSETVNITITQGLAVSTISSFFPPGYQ
Chain of FcgRIIIa F (P08637 17-208): as the sequence (P08637 17-208 F176V) above, with V160F counted along it

Kd (FcgRIIb) [nM] | Kd (FcgRIIa R) [nM] | Kd (FcgRIIIa V) [nM] | Kd (FcgRIIa H) [nM] | Kd (FcgRIIIa F) [nM] | Kd (FcgRIa) [nM] | Binder
2000 | 370 | 1.9 | 110 | 6.7 | 1.8 | H240-FA024/H240-FB001/L73-k0 (antibody) chain 1: QDQLVQSGAEVKKPGASVKVSCKASGFNIKDTYIQWVRQAPGQGLEWMGRIDPLRKQTKYREKFEGRVTITADTSTNTAYMELSSLRSEDTAVYYCVRSGREFDYWGQGTLVTVSSASTKGPSVFPLAPSSKSTSGGTAALGCLVKDYFPEPVTVSWNSGALTSGVHTFPAVLQSSGLYSLSSVVTVPSSSLGTKTYTCNVNHKPSNTKVDKKVEPKSCDKTHTCPPCPAPEYYWGPSVFLFPPKPKDTLMISRTPEVTCVVVDVSDEEPKVKFNWYVDGVEVHNAKTKPREEQYNATYRVVSVLTVLHQDWLNGKEYKCKVSNKALPAPIEKTISKAKGQPREPQVYTLPPSRKEKTKNQVSLTCLVKGFYPSDIAVEWESNGQPENNYKTTPPVLDSDGSFFLYSKLTVDKSRWQQGNVFSCSVMHEALHNRYTQKSLSLSP chain 2: QDQLVQSGAEVKKPGASVKVSCKASGFNIKDTYIQWVRQAPGQGLEWMGRIDPLRKQTKYREKFEGRVTITADTSTNTAYMELSSLRSEDTAVYYCVRSGREFDYWGQGTLVTVSSASTKGPSVFPLAPSSKSTSGGTAALGCLVKDYFPEPVTVSWNSGALTSGVHTFPAVLQSSGLYSLSSVVTVPSSSLGTQTYICNVNHKPSNTKVDKKVEPKSCDKTHTCPPCPAPELLGGPSVFLFPPKPKDTLMISRTPEVTCVVVDVSHEEPEVQFNWYVDGVEVHNAKTKPREEQYNSTYRVVSVLTVLHQDWLNGKEYKCKVSNDALPMPIEETISKAKGQPREPQVYTLPPSREEMTKNQVSLTCLVKGFYPSDIAVEWESNGQPENNYKTTPPVLDSDGSFFLYSKLTVDKSRWQQGNVFSCSVMHEALHNHYTQESLSLSP chain 3: DIQMTQSPSSLSASVGDRVTITCRASQDIHKYIAWYQQKPGQAPRLLIQYTSTLQPGVPSRFSGSGSGTDYTFTISSLQPEDIATYYCLQYEQLRTFGGGTKVEIKRTVAAPSVFIFPPSDEQLKSGTASVVCLLNNFYPREAKVQWKVDNALQSGNSQESVTEQDSKDSTYSLSSTLTLSKADYEKHKVYACEVTHQGLSSPVTKSFNRGEC
3300 | 440 | 1.7 | 120 | 6.4 | 0.036 | H240-FA030/H240-FB001/L73-k0 (antibody) chain 1: QDQLVQSGAEVKKPGASVKVSCKASGFNIKDTYIQWVRQAPGQGLEWMGRIDPLRKQTKYREKFEGRVTITADTSTNTAYMELSSLRSEDTAVYYCVRSGREFDYWGQGTLVTVSSASTKGPSVFPLAPSSKSTSGGTAALGCLVKDYFPEPVTVSWNSGALTSGVHTFPAVLQSSGLYSLSSVVTVPSSSLGTKTYTCNVNHKPSNTKVDKKVEPKSCDKTHTCPPCPAPEYYWGPSVFLFPPKPKDTLMISRTPEVTCVVVDVSDEEPKVKFNWYVDGVEVHNAKTKPREEQYNATYRVVSVLTVLHQDWLNGKEYKCKVSNKALPAPIEKTISKAKGQPREPQVYTLPPSRKEMTKNQVSLTCLVKGFYPSDIAVEWESNGQPENNYKTTPPVLDSDGSFFLYSKLTVDKSRWQQGNVFSCSVMHEALHNRYTQKSLSLSP chain 2: QDQLVQSGAEVKKPGASVKVSCKASGFNIKDTYIQWVRQAPGQGLEWMGRIDPLRKQTKYREKFEGRVTITADTSTNTAYMELSSLRSEDTAVYYCVRSGREFDYWGQGTLVTVSSASTKGPSVFPLAPSSKSTSGGTAALGCLVKDYFPEPVTVSWNSGALTSGVHTFPAVLQSSGLYSLSSVVTVPSSSLGTQTYICNVNHKPSNTKVDKKVEPKSCDKTHTCPPCPAPELLGGPSVFLFPPKPKDTLMISRTPEVTCVVVDVSHEEPEVQFNWYVDGVEVHNAKTKPREEQYNSTYRVVSVLTVLHQDWLNGKEYKCKVSNDALPMPIEETISKAKGQPREPQVYTLPPSREEMTKNQVSLTCLVKGFYPSDIAVEWESNGQPENNYKTTPPVLDSDGSFFLYSKLTVDKSRWQQGNVFSCSVMHEALHNHYTQESLSLSP chain 3: DIQMTQSPSSLSASVGDRVTITCRASQDIHKYIAWYQQKPGQAPRLLIQYTSTLQPGVPSRFSGSGSGTDYTFTISSLQPEDIATYYCLQYEQLRTFGGGTKVEIKRTVAAPSVFIFPPSDEQLKSGTASVVCLLNNFYPREAKVQWKVDNALQSGNSQESVTEQDSKDSTYSLSSTLTLSKADYEKHKVYACEVTHQGLSSPVTKSFNRGEC
1500 | 250 | 1.2 | 79 | 4.6 | 0.095 | H240-FA024/H240-FB084/L73-k0 (antibody) chain 1: QDQLVQSGAEVKKPGASVKVSCKASGFNIKDTYIQWVRQAPGQGLEWMGRIDPLRKQTKYREKFEGRVTITADTSTNTAYMELSSLRSEDTAVYYCVRSGREFDYWGQGTLVTVSSASTKGPSVFPLAPSSKSTSGGTAALGCLVKDYFPEPVTVSWNSGALTSGVHTFPAVLQSSGLYSLSSVVTVPSSSLGTKTYTCNVNHKPSNTKVDKKVEPKSCDKTHTCPPCPAPEYYWGPSVFLFPPKPKDTLMISRTPEVTCVVVDVSDEEPKVKFNWYVDGVEVHNAKTKPREEQYNATYRVVSVLTVLHQDWLNGKEYKCKVSNKALPAPIEKTISKAKGQPREPQVYTLPPSRKEKTKNQVSLTCLVKGFYPSDIAVEWESNGQPENNYKTTPPVLDSDGSFFLYSKLTVDKSRWQQGNVFSCSVMHEALHNRYTQKSLSLSP chain 2: QDQLVQSGAEVKKPGASVKVSCKASGFNIKDTYIQWVRQAPGQGLEWMGRIDPLRKQTKYREKFEGRVTITADTSTNTAYMELSSLRSEDTAVYYCVRSGREFDYWGQGTLVTVSSASTKGPSVFPLAPSSKSTSESTAALGCLVEDYFPEPVTVSWNSGALTSGVHTFPAVLQSSGLYSLSSVVTVPSSNFGTQTYTCNVDHKPSNTKVDKTVEPKSCDKTHTCPPCPAPELLGGPSVFLFPPKPKDTLMISRTPEVTCVVVDVSHEEPEVQFNWYVDGVEVHNAETKPREEQYNSTYRVVSVLTVLHQDWLNGKEYKCKVSNDALPMPIEETISKAKGQPREPQVYTLPPSREEMTKNQVSLTCLVKGFYPSDIAVEWESEGQPENNYKTTPPVLDSDGSFFLYSKLTVDKSRWQQGNVFSCSVMHEALHNHYTQESLSLSP chain 3: DIQMTQSPSSLSASVGDRVTITCRASQDIHKYIAWYQQKPGQAPRLLIQYTSTLQPGVPSRFSGSGSGTDYTFTISSLQPEDIATYYCLQYEQLRTFGGGTKVEIKRTVAAPSVFIFPPSDEQLKSGTASVVCLLNNFYPREAKVQWKVDNALQSGNSQESVTEQDSKDSTYSLSSTLTLSKADYEKHKVYACEVTHQGLSSPVTKSFNRGEC
